Experimental findings from paper PMC6821130 are described below.

“And” between values parts separate entries of the source, which are not always exact repeats. Equal values may be shown once.

The target of experiment [1] is 6xHis-PilT^K136A (Vibrio cholerae). The experiment is described as follows: negative-stain electron microscopy.
Experiment [2] has as its target PilU (full length, fused to the T18 or T25 fragment of adenylate cyclase). The experiment is described as follows: BACTH Miller assay. The settings on record: read off a plot.
Experiment [3] deals with PilT (full length, fused to the T18 or T25 fragment of adenylate cyclase). The experiment is described as follows: BACTH Miller assay. The settings on record: read off a plot.
The target of experiment [4] is PilT^K136A (full length, fused to the T18 or T25 fragment of adenylate cyclase). The experiment is described as follows: BACTH Miller assay. The conditions noted are these: read off a plot.
The target in experiment [5] is PilC (full length, fused to the T18 or T25 fragment of adenylate cyclase) (UniProt Q9X4G9). The experiment is described as follows: BACTH Miller assay. The conditions noted are these: read off a plot.
The target of experiment [6] is PilU^K134A (full length, fused to the T18 or T25 fragment of adenylate cyclase). The experiment is described as follows: BACTH Miller assay. The conditions noted are these: parent: est. 180; read off a plot.
The target of experiment [7] is 6XHis-PilU (Vibrio cholerae). The experiment is described as follows: negative-stain electron microscopy.
Experiment [8] deals with 6xHis-PilU^K134A (Vibrio cholerae). The experiment is described as follows: negative-stain electron microscopy.
For experiment [9], the target named is 6XHis-PilT (Vibrio cholerae). The experiment is described as follows: negative-stain electron microscopy.

Sequence of UniProt Q9X4G9 (Q9X4G9 whole entry, the tested form may be a part): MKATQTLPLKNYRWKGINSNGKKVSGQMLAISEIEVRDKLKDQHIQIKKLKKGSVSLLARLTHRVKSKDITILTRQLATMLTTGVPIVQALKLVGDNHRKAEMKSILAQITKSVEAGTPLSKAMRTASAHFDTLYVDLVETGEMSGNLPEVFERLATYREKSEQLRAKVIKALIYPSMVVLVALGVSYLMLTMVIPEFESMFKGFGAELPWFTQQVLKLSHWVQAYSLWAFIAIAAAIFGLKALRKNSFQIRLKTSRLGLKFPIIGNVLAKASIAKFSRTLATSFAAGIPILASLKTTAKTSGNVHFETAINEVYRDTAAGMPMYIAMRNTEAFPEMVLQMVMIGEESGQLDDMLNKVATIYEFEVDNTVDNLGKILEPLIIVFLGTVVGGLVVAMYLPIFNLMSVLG

Usually stoichiometry N stands for the number of molecules, sites or subunits per partner or assembly. Regarding 6xHis-PilT^K136A (enzyme), in experiment [1], the stoichiometry N came out at 6.
As to “PilT (full length, fused to the T18 or T25 fragment of adenylate cyclase) K136A”, the response in [2] (parent: est. 65) was 8.5 Miller Units; in experiment [2] (parent: est. 110), 78 Miller Units; in experiment [3] (parent: est. 170), 170 Miller Units and 160 Miller Units; in experiment [4] (parent: est. 170), 85 Miller Units; in experiment [5] (parent: est. 90) it was 80 Miller Units; in [5] (parent: est. 120) it was 110 Miller Units.
For the substance “PilU (full length, fused to the T18 or T25 fragment of adenylate cyclase) K134A”, the response in [2] (parent: est. 180) is 180 Miller Units and 220 Miller Units; in experiment [3] (parent: est. 65) it was 85 Miller Units; in [3] (parent: est. 110), 78 Miller Units; in experiment [6] it was 140 Miller Units; in experiment [5] (parent: est. 55), 75 Miller Units; in [5] (parent: est. 100), 110 Miller Units.
With m2; m1 PilU:K134A; PilT:K136A, the values for the response in experiment [4] (parent: est. 65) and in experiment [4] (parent: est. 110) were 11 Miller Units and 48 Miller Units, respectively.
Substance 6XHis-PilU (enzyme) returned a stoichiometry N in experiment [7] of 6.
Take 6xHis-PilU^K134A (enzyme): in experiment [8], the stoichiometry N amounted to 6.
For 6XHis-PilT (enzyme), the stoichiometry N in experiment [9] was 6.
